In PMC5579192, “De novo design of antibody complementarity determining regions binding a FLAG tetra-peptide” (Scientific Reports, 2017):
Changes are numbered by the printed parent chain.

T1: MBP-KEE ligand (EE peptide) (peptide tag (EE/Glu-Glu), derived from …)
T1 construct: EE peptide presented by MBP
T1 chain: EYMPME

T2: carrier protein (scFv 14B7) with the minimal DYKD peptide at the n-terminus (synthetic peptide tag (minimal FLAG))
T2 construct: minimal FLAG peptide at the protein n-terminus; irrelevant scFv 14B7 used as carrier protein; also called n-DYKD; n-DYKD ligand; source: plasmid pAK400/14B7
T2 chain: DYKD

B1: EEh13.6 Fab (Fab, V domains shown)
VH: QVQLQQSGPEDVKPGASVKISCKASGDSLSSFNAGVNWVKQSPGKGLEWLAHGAVMSTRYNPSLKSRATLTVDKTSSTVYLELRSLTSEDSSVYYCAKSTGRYDFWGQGTTVTVSS
VL: DIVMTQTPSSLPVSLGDQASISCRSSQSIVHSNGNTYLEWYLQKPGQSPKLLIYKVSNRFSGVPDRFSGSGSGTDFTLKISRVEAEDLGIYYCFQGSLVPPTFGAGTKLELK
notes: VH as the VH of m1: framework of the αEE scFv (PDB 3NN8) with designed CDRs H1-H3; heavy chain constant part of the Fab from the vector pFabF; not described; VL as in the αEE scFv (PDB 3NN8), not modified in the EEh library; kappa light chain constant domain from the vector pFabF; human by the detection reagent (goat anti-human kappa); This Fab co-purified with free light chain (33 % monomer); …
B2: EEh13.6 scFv displayed on phage (scFv, V domains shown)
VH: B1 VH
VL: B1 VL
notes: VL as in the αEE scFv (PDB 3NN8); the light chain was not modified in the EEh library; linker, printed as (GGGGS)4; VH: framework of the αEE scFv (PDB 3NN8) with designed CDRs H1-H3; model PDB file in the supplementary datasets; Orientation VL-(GGGGS)4-VH; no amino acid differences from αEE outside the CDRs; also called EEh13.6 scFv-phage; source: E. coli, scFv fused to truncated pIII on phage …
B3: EEh14.3 Fab (Fab, V domains shown)
VH: QVQLQQSGPEDVKPGASVKISCKASGDSLSSYNAGVNWVKQSPGKGLEWLAHMAGVSTRYNPSLKSRATLTVDKTSSTVYLELRSLTSEDSSVYYCVRNEWSGAFWGQGTTVTVSS
VL: B1 VL
notes: VH as the VH of m2: framework of the αEE scFv (PDB 3NN8) with designed CDRs H1-H3; heavy chain constant part of the Fab from the vector pFabF; not described; VL as in the αEE scFv (PDB 3NN8), not modified in the EEh library; kappa light chain constant domain from the vector pFabF; human by the detection reagent (goat anti-human kappa); also called Fab EEh14.3
B4: αEE Fab (parental) (Fab, V domains shown)
VH: QVQLQQSGPEDVKPGASVKISCKASGYSLSTSGMGVNWVKQSPGKGLEWLAHIYWDDDKRYNPSLKSRATLTVDKTSSTVYLELRSLTSEDSSVYYCARRGGSSHYYAMDYWGQGTTVTVSS
VL: B1 VL
notes: VH of the αEE scFv; heavy chain constant part of the Fab; not described; VL of the αEE scFv; kappa light chain constant domain; human by the detection reagent (goat anti-human kappa); also called parental αEE Fab; source: bacterial periplasm, purified Fab
B5: EEh14.3 scFv displayed on phage (scFv, V domains shown)
VH: B3 VH
VL: B1 VL
notes: VL as in the αEE scFv (PDB 3NN8); the light chain was not modified in the EEh library; linker, printed as (GGGGS)4; VH: framework of the αEE scFv (PDB 3NN8) with designed CDRs H1-H3; model PDB file in the supplementary datasets; Orientation VL-(GGGGS)4-VH; no amino acid differences from αEE outside the CDRs; also called EEh14.3 scFv-phage; source: E. coli, scFv fused to truncated pIII on phage …
B6: EEf15.4 Fab (Fab, V domains shown)
VH: QVQLQQSGPEDVKPGASVKISCKASGFSIKGANVNWVKQSPGKGLEWLAHVRGDASTRYNPSLKSRATLTVDKTSSTVYLELRSLTSEDSSVYYCADRKMYSFYSGGEAWGQGTTVTVSS
VL: DIVMTQTPSSLPVSLGDQASISCRSSNARSGSLEWYLQKPGQSPKLLIYDGNNRFSGVPDRFSGSGSGTDFTLKISRVEAEDLGIYYCSAFDQTNKYVGFGAGTKLELK
notes: VH as the VH of m3: framework of the αEE scFv (PDB 3NN8) with designed CDRs H1-H3; heavy chain constant part of the Fab from the vector pFabF; not described; VL as the VL of m3: framework of the αEE scFv (PDB 3NN8) with designed CDRs L1-L3; kappa light chain constant domain from the vector pFabF; human by the detection reagent (goat anti-human kappa); also called Fab EEf15.4
B7: EEf15.4 scFv displayed on phage (scFv, V domains shown)
VH: B6 VH
VL: B6 VL
notes: VL: framework of the αEE scFv (PDB 3NN8) with designed CDRs L1-L3; model PDB file in the supplementary datasets; linker, printed as (GGGGS)4; VH: framework of the αEE scFv (PDB 3NN8) with designed CDRs H1-H3; Orientation VL-(GGGGS)4-VH; no amino acid differences from αEE outside the CDRs; also called EEf15.4 scFv-phage; source: E. coli, scFv fused to truncated pIII on phage (phagemid pMopac24); …
B8: EEf15.4a scFv displayed on phage (scFv, V domains shown)
VH: B6 VH with F27Y, S28I, I29G, K30S, G31S, A32H, N33T
VL: B6 VL
notes: VL as the VL of EEf15.4: framework of the αEE scFv (PDB 3NN8) with designed CDRs L1-L3; linker, printed as (GGGGS)4; VH as the VH of EEf15.4 except CDR H1, which is that of design EEf5.1; framework of the αEE scFv (PDB 3NN8); Result of a gene synthesis error that combined CDR H1 of EEf5.1 with the other five CDRs of EEf15.4; also called EEf15.4a scFv-phage; source: E. coli, scFv fused …
B9: EEf15.4a Fab (Fab, V domains shown)
VH: B6 VH with F27Y, S28I, I29G, K30S, G31S, A32H, N33T
VL: B6 VL
notes: VH as the VH of m4: as EEf15.4 except CDR H1, which is that of design EEf5.1; framework of the αEE scFv (PDB 3NN8); heavy chain constant part of the Fab from the vector pFabF; not described; VL as the VL of m3: framework of the αEE scFv (PDB 3NN8) with designed CDRs L1-L3; kappa light chain constant domain from the vector pFabF; human by the detection reagent (goat anti-human kappa); also called …

What was measured:
Details in all cases: both partners purified
[1] = target: T1, MBP-KEE ligand (EE peptide); assay: ELISA; wells coated with carrier protein ligands (10 μg/mL); purified Fab serially diluted; detected with goat-anti-human kappa-HRP
[2] = target: T2, carrier protein (scFv 14B7) with the …; assay: as above
[3] = target: T1, MBP-KEE ligand (EE peptide); assay: ELISA; monoclonal phage ELISA: phage purified by NaCl-PEG precipitation, serially diluted at known pfu, on wells coated with ligand (4 μg/ml); detected with anti-M13-HRP; signal shown at 10^11 pfu
[4] = target: T1, MBP-KEE ligand (EE peptide); assay: ELISA; wells coated with carrier protein ligands (10 μg/mL); purified Fab serially diluted; detected with goat-anti-human kappa-HRP
[5] = target: T3, carrier protein (scFv 14B7) with the minimal DYKD peptide at the n-terminus (synthetic peptide tag (minimal FLAG)); assay: as above; remark: listed apart in the source
T3 construct: minimal FLAG peptide at the protein n-terminus; irrelevant scFv 14B7 used as carrier protein; also called n-DYKD; n-DYKD ligand; source: plasmid pAK400/14B7

Binder	binding result [1]	binding result [3]	further results
B1	no binding	–	EC50 [2]: 21 nM
B2	–	no binding	–
B3	no binding	–	EC50 [2]: 50 nM
B4	–	–	EC50 [4]: 35.3 nM
B5	–	no binding	–
B6	no binding	–	EC50 [5]: 4.1 nM
B7	–	no binding	–
B8	–	no binding	–
B9	no binding	–	EC50 [5]: 4.8 nM
